# Experimental data: patent US20120121594A1 (published 2012)
# T1: Mouse IL-6 (mouse, UniProt P08505 25-211, limits assumed)
# T1 sequence (looked up): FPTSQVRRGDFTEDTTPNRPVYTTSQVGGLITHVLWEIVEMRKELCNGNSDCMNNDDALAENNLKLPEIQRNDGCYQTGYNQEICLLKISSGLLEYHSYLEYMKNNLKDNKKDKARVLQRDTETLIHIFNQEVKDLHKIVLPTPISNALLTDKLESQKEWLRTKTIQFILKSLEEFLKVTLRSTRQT
# T2: Cynomolgus monkey IL-6 (cynomolgus monkey, UniProt P79341 28-212, limits assumed)
# T2 sequence (looked up): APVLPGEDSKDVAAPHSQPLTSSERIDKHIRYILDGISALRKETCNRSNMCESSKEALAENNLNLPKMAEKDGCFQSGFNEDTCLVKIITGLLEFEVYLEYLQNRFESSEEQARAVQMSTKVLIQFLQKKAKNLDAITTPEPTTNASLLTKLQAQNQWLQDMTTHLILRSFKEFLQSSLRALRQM
# T3: Rat IL-6 (rat, UniProt P20607 25-211, limits assumed)
# T3 sequence (looked up): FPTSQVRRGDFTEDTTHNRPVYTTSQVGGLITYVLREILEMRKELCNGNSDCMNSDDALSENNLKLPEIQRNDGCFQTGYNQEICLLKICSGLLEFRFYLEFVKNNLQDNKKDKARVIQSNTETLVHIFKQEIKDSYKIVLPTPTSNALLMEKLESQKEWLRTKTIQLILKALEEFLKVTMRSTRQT
# B1: Ab1 (antibody, human IgG1, kappa, N297A, V domains shown)
# VH: EVQLVESGGGLVQPGGSLRLSCAASGFSLSNYYVTWVRQAPGKGLEWVGIIYGSDETAYATSAIGRFTISRDNSKNTLYLQMNSLRAEDTAVYYCARDDSSDWDAKFNLWGQGTLVTVSS
# VL: AIQMTQSPSSLSASVGDRVTITCQASQSINNELSWYQQKPGKAPKLLIYRASTLASGVPSRFSGSGSGTDFTLTISSLQPDDFATYYCQQGYSLRNIDNAFGGGTKVEIKR
# Key:
# Assay in all cases: cell-based or functional assay
# [1] = biological target: T1, Mouse IL-6
# [2] = biological target: T2, Cynomolgus monkey IL-6
# [3] = biological target: Human IL-6 (human, UniProt P05231 30-212)
# [4] = biological target: T3, Rat IL-6
binder,measurement,setting,value
B1,"IC50 (pM), T1165 cell proliferation assay",[1],1840 pM
same,"IC50 (pM), T1165 cell proliferation assay",[2],12 pM
same,"IC50 (pM), T1165 cell proliferation assay",[3],13 pM
same,"IC50 (pM), T1165 cell proliferation assay",[4],2060 pM
